Reference: patent publication US12539289B2, “Phorbol ester compositions and methods of use for treating or reducing the duration of cytopenia” (BIOSUCCESS BIOTECH CO., LTD., priority 2014, dated 2026)

B1: G-CSF: granulocyte-colony stimulating factor, a glycoprotein that stimulates the bone marrow to produce granulocytes and stem cells (protein, UniProt P09919 31-207, looked up)
Granulocyte …: TPLGPASSLPQSFLLKCLEQVRKIQGDGAALQEKLVSECATYKLCHPEELVLLGHSLGIPWAPLSSCPSQALQLAGCLSQLHSGLFLYQGLLQALEGISPELGPTLDTLQLDVADFATTIWQQMEELGMAPALQPTQGAMPAFASAFQRRAGGVLVASHLQSFLEVSYRVLRHLAQP

Legend:
Drug Induced Cytopenia = test: Drug induced cytopenia treated by TPA: blood cell counts after DNR + Ara-C; type: in vivo, mice; conditions: n = 10
Procedure: Ninety (90) adult mice were randomly assigned to 9 groups (10 mice per group). No drug was administered in Control group. Model group was given DNR (6 mg/kg)+Ara-C (150 mg/kg) on Day 0. The rest of the 7 groups were given DNR (6 mg/kg)+Ara-C (150 mg/kg) on Day 0, and each group on Day 7, Day 8, and Day 9 was administered with one of the following drugs: G-CSF (10 μg/kg), EPO (500 IU/kg), TPA (12.5 μg/kg), TPA (25 μg/kg), TPA (50 μg/kg), TPA (12.5 μg/kg)+GCSF (10 μg/kg), or TPA (12.5 μg/kg)+EPO (500 IU/kg).

[1] = system: neutropenia and thrombocytopenia; test: AML (M2) patient case after DA regimen chemotherapy; type: in vivo, human
Procedure: Patient, diagnosed with AML (M2). Patient's bone marrow myeloblast plus promyelocyte count was about 60%. After they received one standard course of DA regimen (7 Ara C+3 Daunorubicin), their peripheral WBC count dropped to 0.8×10^9/L. They were then administered 150 μg G-CSF each day. After chemotherapy, it took 12 days (duration of neutropenia and thrombocytopenia) to bring both their platelet count and WBC count, including the neutrophil count, back to normal. Their bone marrow myeloblast plus promyelocyte count was about 40%, still way above the normal value (0˜5%). Then, they received their second standard course of DA regimen. After the second course of DA regimen, their peripheral WBC count and platelet count dropped to 0.6×10^9/L and 80×10^9/L respectively. They were then administered TPA plus G-CSF (150 μg TPA followed with 150 μg G-CSF) each day of day 1 and day 2. On day 4 and day 5, they were administered with only 150 μg TPA each day. The WBC counts and neutrophil percentage* in parenthesis were 1.8×10^9/L (39%) on day 3, 6.5×10^9/L (72%) on day 7, and 5.7×10^9/L (77%) on day 14. The estimated duration of neutropenia after chemotherapy was shortened to about 5 days. The platelet counts were 330×10^9/L on day 3, 715×10^9/L on day 7, and 568×10^9/L on day 14. The estimated duration of thrombocytopenia after chemotherapy was shortened to less than 3 days. […]

neutropenia = test: Duration of neutropenia after high dose chemotherapy; type: in vivo; conditions: stated 'for example'
Excerpt: For example, the duration of neutropenia after high dose chemotherapy and treatment with GCSF is, for example, about 24±3 days. The combination of TPA and GCSF reduces the duration of neutropenia to about 15±3 days, or about a 25% to 50% reduction in the duration of neutropenia.

[2] = system: Human bone marrow cells from the same AML patient after chemotherapy; test: Colony formation of bone marrow hematopoietic cells in methyl cellulose semi-solid culture medium; type: cell-based
Procedure: (§1) To explore the effect of TPA alone or combined rhG-CSF on bone marrow hematopoietic cells proliferation and colony formation ability which from patients of acute myeloid leukemia (AML) in the period of bone marrow suppression in vitro and to observe the effect of TPA on bone marrow stromal cells(BMSCs) proliferation or inhibition from patients of AML in the period of myelosuppression and the healthy persons.
• 1) Human bone marrow cells from the same AML patient after chemotherapy were cultured by methyl cellulose semi-solid culture medium. Groups: Blank, TPA (10 ng/ml), G-CSF (50 ng/ml), TPA (10 ng/ml)+GCSF (50 ng/ml). The experiments were repeated for 4 times. • 2) The stroma cells of bone marrow from the healthy human and the AML patient after chemotherapy were cultured by methyl cellulose semi-solid culture medium. Different TPA concentrations were added. Groups: Blank, TPA (0.1 ng/ml), TPA (1.0 ng/ml), TPA (5 ng/ml), TPA (10 ng/ml), TPA (20 ng/ml), TPA (30 ng/ml). • 3) Cultivation of BMSCs from healthy persons and patients of AML in the bone marrow suppression phase in vitro, added to TPA of different concentrations, 0.1 ng/ml, 1.0 ng/ml, 5 ng/ml, 10 ng/ml, 20 ng/ml, 30 ng/ml, and set up a control to detect cell proliferation or inhibition with CCK8 method. Results and Conclusion: • 1. Compared the clones of four groups in incomplete medium, in the control group a small cell clusters can be seen for 24-72 hours, but the cells were dead as time prolong. Cultivated 14 days, control group have no clones formation, CFU-GM are dominated for G-CSF group, TPA alone and combination with G-CSF group have myeloid colony formation, while BFU-E and CFU-GEMM. […] Compared the clones of different concentration of TPA stimulation in incomplete medium, the total clones of 5 ng/ml, 10 ng/ml, 20 ng/ml group are higher than other groups, including 10 ng/ml in the highest, there are statistical significance (both P<0.05). While decreasing or increasing TPA concentration can not improve the colony number. The better concentration of TPA to stimulate the colony formation is 5˜20 ng/ml. […] Compared the clones of different concentration of TPA and G-CSF (50 ng/ml) stimulation in incomplete medium. Combination with G-CSF the better concentration of TPA is 1˜10 ng/ml (both P<0.05). Combination with G-CSF the best concentration of TPA is 5 ng/ml and 1 ng/ml. for CFU-GM and CFU-GEMM. The main clone types are myeloid colones, CFU-GM, also have CFU-GEMM and fewer BFU-E. • 4. […] While TPA group and G-CSF group the number of clones of TPA group and G-CSF group have no statistical significance (P=0.577). • 5. […] Meanwhile, TPA promote bone marroe stromal cells from the AML patients proliferation of concentration 5˜30 ng/ml (cell number 2×10^5/ml). 5 ng/ml of TPA is the best concentration of promoting proliferation, and G-CSF had no effect on the growth of BMSCs from healthy persons or AML patients.

[3] = system: bone marrow stromal cells (BMSCs) from patients of AML in the bone marrow suppression phase; test: BMSC proliferation or inhibition, CCK8 method, AML patients; type: cell-based, human
Procedure: as §1
(§2) • 1) Human bone marrow cells from the same AML patient after chemotherapy were cultured by methyl cellulose semi-solid culture medium. Groups: Blank, TPA (10 ng/ml), G-CSF (50 ng/ml), TPA (10 ng/ml)+GCSF (50 ng/ml). The experiments were repeated for 4 times. • 2) The stroma cells of bone marrow from the healthy human and the AML patient after chemotherapy were cultured by methyl cellulose semi-solid culture medium. Different TPA concentrations were added. Groups: Blank, TPA (0.1 ng/ml), TPA (1.0 ng/ml), TPA (5 ng/ml), TPA (10 ng/ml), TPA (20 ng/ml), TPA (30 ng/ml). • 3) Cultivation of BMSCs from healthy persons and patients of AML in the bone marrow suppression phase in vitro, added to TPA of different concentrations, 0.1 ng/ml, 1.0 ng/ml, 5 ng/ml, 10 ng/ml, 20 ng/ml, 30 ng/ml, and set up a control to detect cell proliferation or inhibition with CCK8 method. Results and Conclusion: • 1. […]

[4] = system: bone marrow stromal cells (BMSCs) from healthy persons; test: BMSC proliferation or inhibition, CCK8 method, healthy persons; type: cell-based, human; conditions: healthy persons
Procedure: as §1, §2

[5] = 8 days after DNR + Ara-c, 1 day after 1st dose, G-CSF 10, EPO 500, TPA 12.5, TPA + GCSF 12.5 + 10, TPA + EPO 12.5 + 500 (μg·kg^−1)
[6] = 9 days after DNR + Ara-c, 1 day after 2nd dose, G-CSF 10, EPO 500, TPA 12.5, TPA + GCSF 12.5 + 10, TPA + EPO 12.5 + 500 (μg·kg^−1)
[7] = 10 days after DNR + Ara-c, 1 day after 3rd dose, G-CSF 10, EPO 500, TPA 12.5, TPA + GCSF 12.5 + 10, TPA + EPO 12.5 + 500 (μg·kg^1)

Molecule | PLT (Drug Induced Cytopenia; [5]) | RBC (Drug Induced Cytopenia; [5]) | WBC (Drug Induced Cytopenia; [5]) | PLT (Drug Induced Cytopenia; [6]) | RBC (Drug Induced Cytopenia; [6]) | WBC (Drug Induced Cytopenia; [6]) | PLT (Drug Induced Cytopenia; [7]) | RBC (Drug Induced Cytopenia; [7]) | WBC (Drug Induced Cytopenia; [7]) | bone marrow myeloblast plus promyelocyte count ([1]; after first DA course and 150 μg G-CSF each day) | duration of neutropenia and thrombocytopenia ([1]; after first DA course, 150 μg G-CSF each day) [days] | duration of neutropenia (neutropenia) | colony types whose formation is promoted (CFU-GM, CFU-GEMM, BFU-E) ([2]; bone marrow of AML patients in the period of bone marrow suppression, in vitro) | total number of clones ([2]; incomplete medium, cultivated 14 days, TPA 10 ng/ml, G-CSF 50 ng/ml) | effect on the growth of BMSCs [3] | effect on the growth of BMSCs [4]
EPO: erythropoietin, a glycoprotein hormone that controls erythropoiesis, or red blood cell production | 385 ± 19.28^(1)(1)(2)(2) ×10^9/L | 7.32 ± 0.10^(1)(1)(2)(2) ×10^12/L | 3.7 ± 0.69^(1)(1) ×10^9/L | 935 ± 43.57^(1)(1)(2)(2) ×10^9/L | 6.75 ± 0.69^(1)(1)(2) ×10^12/L | 5.52 ± 0.34^(1)(1) ×10^9/L | 1469 ± 75.67^(2)(2) ×10^9/L | 8.51 ± 0.86^(1)(1)(2)(2)(3)(3) ×10^12/L | 6.45 ± 0.41^(3)(3) ×10^9/L |  |  |  |  |  |  | 
B1 | 373 ± 76.27^(1)(1)(2)(2) ×10^9/L | 4.94 ± 0.42^(1)(1) ×10^12/L | 5.3 ± 0.62^(1)(2)(2) ×10^9/L | 949 ± 65.88^(1)(1)(2)(2) ×10^9/L | 5.40 ± 0.46^(1)(1) ×10^12/L | 6.95 ± 0.44^(2) ×10^9/L | 1456 ± 91.76^(2)(2) ×10^9/L | 5.30 ± 0.34^(1)(1) ×10^12/L | 9.14 ± 0.67^(1)(1)(2)(2) ×10^9/L | about 40% | 12 | about 24±3 days | promoted the formation of CFU-GM, but had no effect on CFU-GEMM and BFU-E | higher than control group | had no effect | had no effect
